Reference: PMC2188614 (The Journal of Experimental Medicine, 1990)

B1: CD3 zeta (transfected cDNA) (natural protein, murine, UniProt P24161-1 22-164, looked up)
chain: QSFGLLDPKLCYLLDGILFIYGVIITALYLRAKFSRSAETAANLQDPNQLYNELNLGRREEYDVLEKKRARDPEMGGKQQRRRNPQEGVYNALQKDKMAEAYSEIGTKGERRRGKGHDGLYQGLSTATKDTYDALHMQTLAPR
B2: CD3 zeta (endogenous) (natural protein, murine, UniProt P24161-1 22-164, looked up)
chain: B1 chain
B3: CD3 eta (transfected cDNA) (natural protein, murine, UniProt P24161-2 22-206, looked up)
chain: QSFGLLDPKLCYLLDGILFIYGVIITALYLRAKFSRSAETAANLQDPNQLYNELNLGRREEYDVLEKKRARDPEMGGKQQRRRNPQEGVYNALQKDKMAEAYSEIGTKGERRRGKGHDGLYQDSHFQAVQFGNRREREGSELTRTLGLRARPKGESTQQSSQSCASVFSIPTLWSPWPPSSSSQL

Target: the molecule itself
Test: 2-D nonreducing/reducing SDS-PAGE

Protein | stoichiometry N
B1 | 2
B2 | 2
B3 | 2
